The results in this text go back to publication PMC3713010, “Sox2 Transcriptionally Regulates Pqbp1, an Intellectual Disability-Microcephaly Causative Gene, in Neural Stem Progenitor Cells”.

Holding throughout (experiment): EMSA; 10% glycerol, 20 mM HEPES pH 7.8, 45 mM KCl, 10 mM NaCl, 1 mM EDTA, 1 mM DTT, 0.2 ug/uL BSA, 0.1% NP-40, 50 ng poly-dIdC; 20 ng each GST protein; room temperature 30 min (heterodimers 4 C); 6% PAGE 0.25x TBE
Holding throughout (conditions): protein: recombinant; tags: GST (N-terminal, pGEX-6P-1); label: 32P-dCTP fill-in of the 5' (dG)5 overhangs of both strands (Methods; control probes are given with GGG)

For data set [1], the target named is Pax6 DNA-binding domain (BD-Pax6) (Mus musculus (B6), UniProt P63015 190-289). A digest of the protocol:
(§1)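 Candidate cis-element oligonucleotides were annealed, labelled with 32P-dCTP and tested against GST-tagged transcription factor DNA-binding domains made in E. coli BL21 and purified on glutathione-sepharose. For each binding reaction, 20 ng protein was combined with 40,000–50,000 cpm probe and 50 ng poly-dIdC in HEPES/KCl glycerol buffer containing BSA and detergent for 30 min at room temperature. Gels of 6% polyacrylamide in 0.25×TBE were run at 4°C, and band radioactivity was measured on a BAS4000 imager. The readout for DNA binding was the band signal in the expected shift region.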

Data set [2] addresses T1, Brn2 DNA-binding domain (BD-Brn2) (Mus musculus (B6), UniProt P31360 336-435).
T1 sequence: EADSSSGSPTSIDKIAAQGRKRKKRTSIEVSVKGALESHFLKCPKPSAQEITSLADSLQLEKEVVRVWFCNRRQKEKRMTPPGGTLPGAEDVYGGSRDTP
A digest of the protocol:
as §1

Data set [3] has as its target T2, Oct6 DNA-binding domain (BD-Oct6) (Mus musculus (B6), UniProt P21952 317-416).
T2 sequence: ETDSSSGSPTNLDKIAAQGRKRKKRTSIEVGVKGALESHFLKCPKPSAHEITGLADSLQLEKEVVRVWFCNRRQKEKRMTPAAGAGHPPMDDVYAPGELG
Put shortly:
as §1

Pax6 DNA-binding domain (BD-Pax6), sequence (P63015 190-289): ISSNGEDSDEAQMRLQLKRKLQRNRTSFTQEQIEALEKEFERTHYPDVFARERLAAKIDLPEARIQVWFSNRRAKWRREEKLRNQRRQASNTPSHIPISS

B1: 75 (dsDNA)
DNA 1: GGGGGGCTCTGGGTATAATTAACAATAAAATGCACCCCC
DNA 2: GGGGGTGCATTTTATTGTTAATTATACCCAGAGCCCCCC
For B1, the binding result in data set [1], in data set [2] and in data set [3] was “binds” each time.

B2: 76 (dsDNA)
DNA 1: GGGGGCAGGTATGATTGTCCATATTGCTAATAAACCCCCC
DNA 2: GGGGGGTTTATTAGCAATATGGACAATCATACCTGCCCCC
For B2, the binding result in data set [1], in data set [2] and in data set [3] was “binds” in each case.

B3: 85 (dsDNA)
DNA 1: GGGGGACATATGCAATTGTTTCCTGTATTATAGTAGAGATCCCCC
DNA 2: GGGGGATCTCTACTATAATACAGGAAACAATTGCATATGTCCCCC
On to B3, for which the values for the binding result in data set [1], in data set [2] and in data set [3] were “binds”, “no binding” and “no binding”, respectively.

B4: 80 (dsDNA)
DNA 1: GGGGGCATCCCAAATTGTTTTCTCACTTTTGTACCACAGATAGATCCCCC
DNA 2: GGGGGATCTATCTGTGGTACAAAAGTGAGAAAACAATTTGGGATGCCCCC
Turning to B4, the binding result in data set [1] is reported as “no binding”; in data set [2] it was “no binding”; in data set [3], “binds”.

B5: 92 (dsDNA)
DNA 1: GGGGGATATAATAATAAATCTTTAAAACAAAAAAAAAAACCCCC
DNA 2: GGGGGTTTTTTTTTTTGTTTTAAAGATTTATTATTATATCCCCC
Take B5: the binding result in data set [1], in data set [2] and in data set [3] was “binds” each time.

B6: 81 (dsDNA)
DNA 1: GGGGGAGAGTGCTGGTATTAAAAGGCACAAACTTTCTTTCCCCC
DNA 2: GGGGGAAAGAAAGTTTGTGCCTTTTAATACCAGCACTCTCCCCC
As to B6, the binding result in data set [1], in data set [2] and in data set [3] was “no binding” each time.

B7: 87 (dsDNA)
DNA 1: GGGGGTTATGACTGTTTAATAATATATATTGTGTTCTGGCCCCCC
DNA 2: GGGGGGCCAGAACACAATATATATTATTAAACAGTCATAACCCCC
As to B7, the binding result in data set [1], in data set [2] and in data set [3] was “binds” in each case.

B8: 78 (dsDNA)
DNA 1: GGGGGTCTTTTGATTTGTCCGATTTAGGTTTTAAACCCCC
DNA 2: GGGGGTTTAAAACCTAAATCGGACAAATCAAAAGACCCCC
For B8, the binding result in data set [1] is reported as “no binding”; in data set [2], “no binding”; in data set [3], “binds”.

B9: 82 (dsDNA)
DNA 1: GGGGGACTATTTATTTGTGTTTTCCTATTCACTTTACATCCCCC
DNA 2: GGGGGATGTAAAGTGAATAGGAAAACACAAATAAATAGTCCCCC
For the molecule B9, the results for the binding result in data set [1], in data set [2] and in data set [3] were “no binding”, “no binding” and “binds”, respectively.

B10: 79 (dsDNA)
DNA 1: GGGGGTGATAGTAACAAAAACCATTTTGTTTTTGGCTCCCCC
DNA 2: GGGGGAGCCAAAAACAAAATGGTTTTTGTTACTATCACCCCC
Take B10: the binding result in data set [1], in data set [2] and in data set [3] was “no binding” throughout.

B11: 89 (dsDNA)
DNA 1: GGGGGCTACCACACCCAACCTCTAGTAAAGGTTTACAAAATGAATGACCCCC
DNA 2: GGGGGTCATTCATTTTGTAAACCTTTACTAGAGGTTGGGTGTGGTAGCCCCC
B11: the binding result was “binds” in data set [1], “no binding” in data set [2] and “no binding” in data set [3].

B12: 77 (dsDNA)
DNA 1: GGGGGTATGTCTATTTGTTTTTTATTTTTTGAAGACTCCCCC
DNA 2: GGGGGAGTCTTCAAAAAATAAAAAACAAATAGACATACCCCC
In the case of B12, the binding result in data set [1], in data set [2] and in data set [3] was “no binding” throughout.

B13: 88 (dsDNA)
DNA 1: GGGGGTGTTTTGTTTTGTTTTTTGTATTGGGAAGTGGGCCCCC
DNA 2: GGGGGCCCACTTCCCAATACAAAAAACAAAACAAAACACCCCC
B13: the binding result in data set [1], in data set [2] and in data set [3] was “no binding” each time.

B14: 84 (dsDNA)
DNA 1: GGGGGTATGAATCACAATGTAAATATCTGTGTTTACCCCC
DNA 2: GGGGGTAAACACAGATATTTACATTGTGATTCATACCCCC
On to B14, for which the binding result in data set [1] is listed as “binds”; in data set [2], “no binding”; in data set [3], “no binding”.

B15: 74 (dsDNA)
DNA 1: GGGGGGACTTTCTTGGCGGATTTGGTAACGACAAAGTTAGGATCCCCC
DNA 2: GGGGGATCCTAACTTTGTCGTTACCAAATCCGCCAAGAAAGTCCCCCC
On to B15, for which the binding result in data set [1], in data set [2] and in data set [3] was “no binding” in each case.

B16: 86 (dsDNA)
DNA 1: GGGGGAGTTTAGTTTGTAGAGTACTTACCTAGCAGCACAAAGCCCTGCCCCC
DNA 2: GGGGGCAGGGCTTTGTGCTGCTAGGTAAGTACTCTACAAACTAAACTCCCCC
For the molecule B16, the binding result in data set [1], in data set [2] and in data set [3] was “no binding” each time.

B17: 90 (dsDNA)
DNA 1: GGGGGTGCTGTTTTTTGTTACTGTCACTAATTACATTTTAAATTATCCCCC
DNA 2: GGGGGATAATTTAAAATGTAATTAGTGACAGTAACAAAAAACAGCACCCCC
Regarding B17, the binding result in data set [1], in data set [2] and in data set [3] was “binds” each time.

B18: 91 (dsDNA)
DNA 1: GGGGGTTTGTTTGTTTGTTTTTAAAAATAAGGTCTCGGGCCCCC
DNA 2: GGGGGCCCGAGACCTTATTTTTAAAAACAAACAAACAAACCCCC
For the molecule B18, the results for the binding result in data set [1], in data set [2] and in data set [3] were “binds”, “no binding” and “binds”, respectively.

B19: 93 (dsDNA)
DNA 1: GGGGGATAGAGGCACAAAAATTTCCAGAGACTGGCCCCC
DNA 2: GGGGGCCAGTCTCTGGAAATTTTTGTGCCTCTATCCCCC
Take B19: the binding result in data set [1], in data set [2] and in data set [3] was “no binding” each time.

B20: 83 (dsDNA)
DNA 1: GGGGGGTCCAAGTTTTGTGACCCTTTAATACAGTTAGATCCCCCC
DNA 2: GGGGGGATCTAACTGTATTAAAGGGTCACAAAACTTGGACCCCCC
Take B20: the binding result in data set [1] is “binds”; in data set [2], “no binding”; in data set [3], “binds”.
